The target of this assay is Pfk-I with the C-terminal degradation tag DAS+4, expressed from the pfkA locus of E. coli strain IB1863 (E. coli) (UniProt P0A796). Nature of the assay: cell-based or functional assay.

Values joined by “and” are separate entries in the source; they are usually repeats but may differ in a detail not shown here. Equal entries are not always repeated.

Chain of Pfk-I with the C-terminal degradation tag DAS+4, expressed from the pfkA locus of E. coli strain IB1863 (E. coli) (P0A796 1-320, tags or fused parts left off): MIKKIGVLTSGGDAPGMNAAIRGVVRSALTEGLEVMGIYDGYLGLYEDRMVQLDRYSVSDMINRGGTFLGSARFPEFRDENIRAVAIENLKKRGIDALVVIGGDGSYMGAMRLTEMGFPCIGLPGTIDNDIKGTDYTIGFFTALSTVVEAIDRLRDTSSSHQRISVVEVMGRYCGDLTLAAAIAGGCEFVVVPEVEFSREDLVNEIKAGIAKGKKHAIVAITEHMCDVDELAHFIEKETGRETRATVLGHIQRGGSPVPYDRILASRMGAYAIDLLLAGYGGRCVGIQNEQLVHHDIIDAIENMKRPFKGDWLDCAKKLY

On to “SspB, native E. coli adaptor protein (from UniProt P0AFZ3 1-165)”, for which the Pfk activity in crude lysate of IB1863 after aTc induction of SspB, relative to wild-type (% of wild-type) was 35 and 18.

Values taken from patent US20170130210A1.
